Data taken from the supplement of paper PMC10065799, “High-throughput profiling of sequence recognition by tyrosine kinases and SH2 domains using bacterial peptide display” (eLife, 2023).

Target: MERTK (UniProt Q12866)
Assay: phosphorylation enrichment, bacterial display (enrichment ratio); higher = better substrate or ligand; peptides without Tyr show the background
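Throughout, for SH2 binding enrichment of the phosphorylated peptide, bacterial display: peptide library displayed on the E. coli surface as eCPX fusions, selected cells deep-sequenced, score is each peptide's frequency after selection divided by its frequency in the input.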
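Throughout, for phosphorylation enrichment, bacterial display: 11-residue human phosphosite peptides and single-mutation variants displayed on the E. coli surface, counted by deep sequencing, each peptide's frequency after selection divided by its frequency in the unselected input library; frequency after pTyr selection over input frequency; kinase dosed for 20-30% of maximal phosphorylation in three min.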

MERTK, sequence (Q12866 whole entry, looked up): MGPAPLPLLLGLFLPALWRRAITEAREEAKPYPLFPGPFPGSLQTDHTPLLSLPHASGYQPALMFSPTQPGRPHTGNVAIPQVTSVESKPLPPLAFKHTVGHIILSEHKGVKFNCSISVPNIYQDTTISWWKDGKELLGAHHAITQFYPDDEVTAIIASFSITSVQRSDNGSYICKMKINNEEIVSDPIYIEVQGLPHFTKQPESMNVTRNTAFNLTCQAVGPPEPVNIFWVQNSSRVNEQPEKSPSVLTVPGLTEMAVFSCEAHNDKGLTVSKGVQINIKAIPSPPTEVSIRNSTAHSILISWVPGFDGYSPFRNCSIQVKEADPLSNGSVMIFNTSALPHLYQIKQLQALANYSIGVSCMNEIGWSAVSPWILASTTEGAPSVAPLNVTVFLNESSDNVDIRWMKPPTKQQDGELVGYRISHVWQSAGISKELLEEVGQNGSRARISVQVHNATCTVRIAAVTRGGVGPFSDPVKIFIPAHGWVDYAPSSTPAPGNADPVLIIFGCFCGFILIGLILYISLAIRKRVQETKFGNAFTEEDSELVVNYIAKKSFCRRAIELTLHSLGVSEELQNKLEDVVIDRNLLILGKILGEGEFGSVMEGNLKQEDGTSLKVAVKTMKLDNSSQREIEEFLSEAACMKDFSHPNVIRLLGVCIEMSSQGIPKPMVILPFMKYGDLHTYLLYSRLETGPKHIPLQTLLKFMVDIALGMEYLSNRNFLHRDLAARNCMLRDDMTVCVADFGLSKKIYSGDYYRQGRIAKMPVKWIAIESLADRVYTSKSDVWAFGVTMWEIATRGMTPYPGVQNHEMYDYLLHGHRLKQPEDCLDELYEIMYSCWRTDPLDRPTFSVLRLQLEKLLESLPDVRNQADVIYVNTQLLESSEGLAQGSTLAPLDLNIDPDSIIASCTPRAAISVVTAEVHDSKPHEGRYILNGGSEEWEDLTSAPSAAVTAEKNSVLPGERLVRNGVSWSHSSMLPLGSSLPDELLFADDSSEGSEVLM

Going from RLPSGYGLAFR [DLK1_Y262_YF] to KWLEQYTQAIE [LSP1_Y234_Q229K], the phosphorylation enrichment falls from 0.396 to 0.39.

Compared with HHFAAYFQQGD [GPI_Y351_R347H], EFGRRYGFSCQ [CCDC93_Y209_R213C_YF] is higher in phosphorylation enrichment: 0.475 for the first, 0.491 for the second.

First: YPQARYHWLVL [APTX_Y214_K211Q]
Second: CERFSYFGMKA [SLC15A2_Y60_YF]
The phosphorylation enrichment of the first is higher: 1.05 for the first, 0.544 for the second.

First: WFKKFYDANFD [MAPRE2_Y158_YF]
Second: PLQKIYNFNVL [SLC4A1_Y553_T552I_YF]
The phosphorylation enrichment of the first is lower: 0.399 for the first, 0.811 for the second.

First: IYLADYRIMEG [ALOX12B_Y318]
Second: PESIMYWKFTT [NTRK3_Y744_R745W]
The phosphorylation enrichment of the first is higher: 3.75 for the first, 0.851 for the second.

Going from QTLEAYIRWNK [SPAST_Y604] to SGGMDYGMVGG [TNRC6B_Y1382], the phosphorylation enrichment falls from 0.45 to 0.384.

Going from RKKEEYKMALF [F8_Y1990_YF] to GPIEVYLCPEE [E2F3_Y349], the phosphorylation enrichment rises from 0.391 to 0.437.

First: TFYQMYDKGLV [IARS2_Y231]
Second: KAIMTYVFSFF [ACTN4_Y260_S262F_YF]
The phosphorylation enrichment of the first is higher: 7.11 for the first, 0.431 for the second.

Going from ILGRTYFVNHE [NEDD4_Y627_YF] to TDEFEYDELIV [TGM1_Y136_YF], the phosphorylation enrichment rises from 0.355 to 0.622.

Going from GYRVYYTPDSR [PTPRF_Y451] to EEQKKYFNAVK [SCN5A_Y1494_M1498V_YF], the phosphorylation enrichment falls from 5.3 to 0.482.

Compared with PSFSEYASVQV [SIRPA_Y496], WCKPPYFSCAV [MMS22L_Y28] is lower in phosphorylation enrichment: 0.474 for the first, 0.418 for the second.

First: ALAAPYVLYPG [CEFIP_Y1332]
Second: GENTVYAQVFN [LY9_Y603_M602V]
The phosphorylation enrichment of the first is lower: 0.597 for the first, 2.21 for the second.

First: GFRPVYSEDEQ [CHST6_Y362_YF]
Second: IHETTYNSIKK [ACTA1_Y281_M285K]
The phosphorylation enrichment of the first is higher: 0.559 for the first, 0.369 for the second.

First: GDNNIYVTKII [DLG1_Y349_S347N]
Second: HCHEGYVLHGA [SVEP1_Y2921_I2922V]
The phosphorylation enrichment of the first is lower: 0.461 for the first, 0.474 for the second.

Compared with VKANTYEKYWP [GATM_Y100], PLQKTYNHNVL [SLC4A1_Y553_Y555H] is lower in phosphorylation enrichment: 0.976 for the first, 0.744 for the second.

Compared with WRVISYHVVVW [ATP13A2_Y50_G49S], VNFGAYINDFK [GLB1_Y488_YF] is lower in phosphorylation enrichment: 0.434 for the first, 0.352 for the second.

EVKRLYGSVCD [TC2N_Y154] showed a phosphorylation enrichment of 0.515.

Target: SHP2-C SH2
Assay: SH2 binding enrichment of the phosphorylated peptide, bacterial display (enrichment ratio); higher = better substrate or ligand; peptides without Tyr show the background

Going from RLPSGYGLAFR [DLK1_Y262_YF] to KWLEQYTQAIE [LSP1_Y234_Q229K], the SH2 binding enrichment falls from 0.852 to 0.806.

First: HHFAAYFQQGD [GPI_Y351_R347H]
Second: EFGRRYGFSCQ [CCDC93_Y209_R213C_YF]
The SH2 binding enrichment of the first is higher: 0.898 for the first, 0.635 for the second.

Compared with YPQARYHWLVL [APTX_Y214_K211Q], CERFSYFGMKA [SLC15A2_Y60_YF] is lower in SH2 binding enrichment: 1.43 for the first, 0.577 for the second.

First: WFKKFYDANFD [MAPRE2_Y158_YF]
Second: PLQKIYNFNVL [SLC4A1_Y553_T552I_YF]
The SH2 binding enrichment of the first is lower: 0.639 for the first, 1.08 for the second.

Compared with IYLADYRIMEG [ALOX12B_Y318], PESIMYWKFTT [NTRK3_Y744_R745W] is higher in SH2 binding enrichment: 1.1 for the first, 1.21 for the second.

Going from QTLEAYIRWNK [SPAST_Y604] to SGGMDYGMVGG [TNRC6B_Y1382], the SH2 binding enrichment falls from 1.61 to 0.765.

Compared with RKKEEYKMALF [F8_Y1990_YF], GPIEVYLCPEE [E2F3_Y349] is lower in SH2 binding enrichment: 1.21 for the first, 0.754 for the second.

Compared with TFYQMYDKGLV [IARS2_Y231], KAIMTYVFSFF [ACTN4_Y260_S262F_YF] is lower in SH2 binding enrichment: 1.29 for the first, 1.19 for the second.

Going from ILGRTYFVNHE [NEDD4_Y627_YF] to TDEFEYDELIV [TGM1_Y136_YF], the SH2 binding enrichment rises from 0.656 to 0.859.

Going from GYRVYYTPDSR [PTPRF_Y451] to EEQKKYFNAVK [SCN5A_Y1494_M1498V_YF], the SH2 binding enrichment falls from 0.977 to 0.604.

Compared with PSFSEYASVQV [SIRPA_Y496], WCKPPYFSCAV [MMS22L_Y28] is higher in SH2 binding enrichment: 0.952 for the first, 1.18 for the second.

First: ALAAPYVLYPG [CEFIP_Y1332]
Second: GENTVYAQVFN [LY9_Y603_M602V]
The SH2 binding enrichment of the first is lower: 0.602 for the first, 7.82 for the second.

Compared with GFRPVYSEDEQ [CHST6_Y362_YF], IHETTYNSIKK [ACTA1_Y281_M285K] is higher in SH2 binding enrichment: 0.73 for the first, 1.63 for the second.

Compared with GDNNIYVTKII [DLG1_Y349_S347N], HCHEGYVLHGA [SVEP1_Y2921_I2922V] is higher in SH2 binding enrichment: 0.687 for the first, 1.36 for the second.

First: VKANTYEKYWP [GATM_Y100]
Second: PLQKTYNHNVL [SLC4A1_Y553_Y555H]
The SH2 binding enrichment of the first is higher: 0.888 for the first, 0.607 for the second.

Going from WRVISYHVVVW [ATP13A2_Y50_G49S] to VNFGAYINDFK [GLB1_Y488_YF], the SH2 binding enrichment falls from 0.994 to 0.551.

Sequence EVKRLYGSVCD [TC2N_Y154] has an SH2 binding enrichment of 0.744.

Target: c-Src SH2
Assay: as above

First: RLPSGYGLAFR [DLK1_Y262_YF]
Second: KWLEQYTQAIE [LSP1_Y234_Q229K]
The SH2 binding enrichment of the first is lower: 0.521 for the first, 0.782 for the second.

Compared with HHFAAYFQQGD [GPI_Y351_R347H], EFGRRYGFSCQ [CCDC93_Y209_R213C_YF] is lower in SH2 binding enrichment: 0.661 for the first, 0.495 for the second.

Compared with YPQARYHWLVL [APTX_Y214_K211Q], CERFSYFGMKA [SLC15A2_Y60_YF] is lower in SH2 binding enrichment: 0.98 for the first, 0.704 for the second.

Going from WFKKFYDANFD [MAPRE2_Y158_YF] to PLQKIYNFNVL [SLC4A1_Y553_T552I_YF], the SH2 binding enrichment rises from 0.512 to 0.906.

Going from IYLADYRIMEG [ALOX12B_Y318] to PESIMYWKFTT [NTRK3_Y744_R745W], the SH2 binding enrichment falls from 0.719 to 0.487.

Going from QTLEAYIRWNK [SPAST_Y604] to SGGMDYGMVGG [TNRC6B_Y1382], the SH2 binding enrichment falls from 0.919 to 0.401.

First: RKKEEYKMALF [F8_Y1990_YF]
Second: GPIEVYLCPEE [E2F3_Y349]
The SH2 binding enrichment of the first is higher: 0.846 for the first, 0.541 for the second.

First: TFYQMYDKGLV [IARS2_Y231]
Second: KAIMTYVFSFF [ACTN4_Y260_S262F_YF]
The SH2 binding enrichment of the first is lower: 0.838 for the first, 0.888 for the second.

First: ILGRTYFVNHE [NEDD4_Y627_YF]
Second: TDEFEYDELIV [TGM1_Y136_YF]
The SH2 binding enrichment of the first is lower: 0.463 for the first, 0.563 for the second.

First: GYRVYYTPDSR [PTPRF_Y451]
Second: EEQKKYFNAVK [SCN5A_Y1494_M1498V_YF]
The SH2 binding enrichment of the first is higher: 2.77 for the first, 0.574 for the second.

First: PSFSEYASVQV [SIRPA_Y496]
Second: WCKPPYFSCAV [MMS22L_Y28]
The SH2 binding enrichment of the first is lower: 0.705 for the first, 1.34 for the second.

First: ALAAPYVLYPG [CEFIP_Y1332]
Second: GENTVYAQVFN [LY9_Y603_M602V]
The SH2 binding enrichment of the first is lower: 0.7 for the first, 1.03 for the second.

Going from GFRPVYSEDEQ [CHST6_Y362_YF] to IHETTYNSIKK [ACTA1_Y281_M285K], the SH2 binding enrichment rises from 0.645 to 1.05.

Going from GDNNIYVTKII [DLG1_Y349_S347N] to HCHEGYVLHGA [SVEP1_Y2921_I2922V], the SH2 binding enrichment rises from 0.546 to 0.826.

First: VKANTYEKYWP [GATM_Y100]
Second: PLQKTYNHNVL [SLC4A1_Y553_Y555H]
The SH2 binding enrichment of the first is higher: 1.02 for the first, 0.659 for the second.

Compared with WRVISYHVVVW [ATP13A2_Y50_G49S], VNFGAYINDFK [GLB1_Y488_YF] is higher in SH2 binding enrichment: 0.619 for the first, 0.625 for the second.

EVKRLYGSVCD [TC2N_Y154] was tested, and the SH2 binding enrichment was 0.56.

Target: Grb2 SH2 (UniProt P62993)
Assay: as above

Grb2 SH2, sequence (P62993 whole entry, looked up): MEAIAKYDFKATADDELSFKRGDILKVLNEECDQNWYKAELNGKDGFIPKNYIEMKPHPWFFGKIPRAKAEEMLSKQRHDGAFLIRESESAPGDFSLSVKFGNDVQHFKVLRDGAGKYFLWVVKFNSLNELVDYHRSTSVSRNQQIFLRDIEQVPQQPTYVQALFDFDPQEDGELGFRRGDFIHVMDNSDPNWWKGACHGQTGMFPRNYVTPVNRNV

Going from RLPSGYGLAFR [DLK1_Y262_YF] to KWLEQYTQAIE [LSP1_Y234_Q229K], the SH2 binding enrichment rises from 0.823 to 0.993.

Compared with HHFAAYFQQGD [GPI_Y351_R347H], EFGRRYGFSCQ [CCDC93_Y209_R213C_YF] is lower in SH2 binding enrichment: 1.21 for the first, 0.856 for the second.

Going from YPQARYHWLVL [APTX_Y214_K211Q] to CERFSYFGMKA [SLC15A2_Y60_YF], the SH2 binding enrichment falls from 1.27 to 1.02.

Going from WFKKFYDANFD [MAPRE2_Y158_YF] to PLQKIYNFNVL [SLC4A1_Y553_T552I_YF], the SH2 binding enrichment rises from 1.06 to 1.29.

First: IYLADYRIMEG [ALOX12B_Y318]
Second: PESIMYWKFTT [NTRK3_Y744_R745W]
The SH2 binding enrichment of the first is higher: 0.982 for the first, 0.767 for the second.

Going from QTLEAYIRWNK [SPAST_Y604] to SGGMDYGMVGG [TNRC6B_Y1382], the SH2 binding enrichment falls from 1.26 to 0.765.

First: RKKEEYKMALF [F8_Y1990_YF]
Second: GPIEVYLCPEE [E2F3_Y349]
The SH2 binding enrichment of the first is higher: 1.09 for the first, 0.817 for the second.

Going from TFYQMYDKGLV [IARS2_Y231] to KAIMTYVFSFF [ACTN4_Y260_S262F_YF], the SH2 binding enrichment rises from 0.941 to 1.26.

Compared with ILGRTYFVNHE [NEDD4_Y627_YF], TDEFEYDELIV [TGM1_Y136_YF] is higher in SH2 binding enrichment: 0.865 for the first, 0.938 for the second.

Going from GYRVYYTPDSR [PTPRF_Y451] to EEQKKYFNAVK [SCN5A_Y1494_M1498V_YF], the SH2 binding enrichment falls from 0.955 to 0.868.

Going from PSFSEYASVQV [SIRPA_Y496] to WCKPPYFSCAV [MMS22L_Y28], the SH2 binding enrichment rises from 0.997 to 1.29.

Compared with ALAAPYVLYPG [CEFIP_Y1332], GENTVYAQVFN [LY9_Y603_M602V] is higher in SH2 binding enrichment: 0.747 for the first, 0.829 for the second.

Going from GFRPVYSEDEQ [CHST6_Y362_YF] to IHETTYNSIKK [ACTA1_Y281_M285K], the SH2 binding enrichment falls from 0.904 to 0.673.

Compared with GDNNIYVTKII [DLG1_Y349_S347N], HCHEGYVLHGA [SVEP1_Y2921_I2922V] is higher in SH2 binding enrichment: 0.836 for the first, 0.957 for the second.

Compared with VKANTYEKYWP [GATM_Y100], PLQKTYNHNVL [SLC4A1_Y553_Y555H] is lower in SH2 binding enrichment: 1.12 for the first, 0.908 for the second.

Compared with WRVISYHVVVW [ATP13A2_Y50_G49S], VNFGAYINDFK [GLB1_Y488_YF] is higher in SH2 binding enrichment: 1.08 for the first, 1.74 for the second.

In the case of EVKRLYGSVCD [TC2N_Y154], the SH2 binding enrichment is reported as 0.714.
